# Experimental data reported in patent US20200399314A1 (MEDIKINE, published 2020).
# Bridge positions count the residues as written; N and C are the ends. Ends that are not written are not given here.
# Biological target: T1, human IL-2Rα subunit (human, UniProt P01589 22-213, limits assumed)
# T1 construct: also called CD25
# T1 sequence (looked up): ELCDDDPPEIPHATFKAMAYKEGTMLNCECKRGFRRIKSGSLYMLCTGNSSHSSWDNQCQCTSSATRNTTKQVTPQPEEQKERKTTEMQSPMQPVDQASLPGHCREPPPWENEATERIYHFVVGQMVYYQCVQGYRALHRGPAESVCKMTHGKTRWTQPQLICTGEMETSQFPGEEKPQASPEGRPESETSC
row,Binder,IC50 [µM]
1,VYCRREKPGGEMHCRS [SEQ ID NO 213],< 100
2,ATCHLLAPGVDNTCIF [SEQ ID NO 217],< 100
3,HGCTLTKPGAEWVCSF [SEQ ID NO 218],< 100
4,QLCPWSDPGSWGPCPL [SEQ ID NO 219],< 100
5,RDCAGMEPGTSVFCDN [SEQ ID NO 220],< 100
6,RDCFILEPGTSVYCDL [SEQ ID NO 221],< 100
7,TDCQETWPGDRPWCHI [SEQ ID NO 222],< 100
8,VKCFMSTPGQIAYCTT [SEQ ID NO 223],< 100
9,LVFCGKNGCHSG [SEQ ID NO 21],< 100
10,VKCYRNSPGVEAYCVG (disulfide 3-14 (inferred)) [SEQ ID NO 224],< 100
11,DCLDLRGTVGMVCQ [SEQ ID NO 227],< 100
12,PCQRLAEYYSQQCL (disulfide 2-13 (inferred)) [SEQ ID NO 228],< 100
13,SCMDLKGSVGWVCD [SEQ ID NO 229],< 100
14,TCESLAKMYEVECN [SEQ ID NO 230],< 100
15,TCESLARMYNENCI [SEQ ID NO 231],< 100
16,WCWEPHDQYYVRCP [SEQ ID NO 232],< 100
17,YCHDFKGTVGTLCI (disulfide 2-13 (inferred)) [SEQ ID NO 233],< 100
18,GCQLVWQDDSYMCFY [SEQ ID NO 234],< 100
19,WCIGQPLFRQGSCK [SEQ ID NO 237],< 100
20,VVLCTPKGCRSA [SEQ ID NO 22],< 100
21,WCVGQPLYRLGSCK (disulfide 2-13 (inferred)) [SEQ ID NO 238],< 100
22,WDQFQLGWEAGVAA [SEQ ID NO 239],< 100
23,FLPWPVYFSQVLGGG [SEQ ID NO 240],< 100
24,YVMCSAFGCKSI [SEQ ID NO 241],< 100

row,Binder,IC50 [µM]
1,HVICSVNGGCRG [SEQ ID NO 242],< 100
2,RRFCLRSEPTACWIV [SEQ ID NO 59],< 100
3,IRFCLRSEPTACWIV [SEQ ID NO 54],< 100
4,MRFCLRSEPTACWTV [SEQ ID NO 61],< 100
5,RRFCLRSEPTACWDV [SEQ ID NO 62],< 100
6,RRFCLRSDPTACWIV [SEQ ID NO 63],< 100
7,KRFCLRSEPTACWTV [SEQ ID NO 64],< 100
8,RRFCLRSEPMACWTV (disulfide 4-12 (inferred)) [SEQ ID NO 65],< 100
9,RRFCLRSEPTACWTV (disulfide 4-12 (inferred)) [SEQ ID NO 66],< 100
10,RRFCLRSEPTACWYV [SEQ ID NO 68],< 100
11,IRFCLRSEPTACWIV [SEQ ID NO 243],< 100
12,IRCRYEKQSGICLF [SEQ ID NO 244],< 100
13,GGCSLVWADSWVCIF [SEQ ID NO 245],< 100
14,GCSLMWQDGWWVCI [SEQ ID NO 246],< 100
15,EWECRFLPGRRGCSLF [SEQ ID NO 247],< 100
16,YVMCSAFGCKSI [SEQ ID NO 23],< 100
17,KGCTLQNPGSGWVCLF [SEQ ID NO 248],< 100
18,TCRLKRSGPNSWECI [SEQ ID NO 249],< 100
19,WCIGQPLFRQGSCK [SEQ ID NO 250],< 100
20,AVSCNSWRCIPW [SEQ ID NO 251],< 100
21,AVCCDGNSCRRC [SEQ ID NO 252],< 100
22,FVHCSLMGCWCG [SEQ ID NO 253],< 100
23,RCLDLGGSVGLVCF [SEQ ID NO 254],< 100
24,VCFNFRGTVGRHCW [SEQ ID NO 255],< 100

row,Binder,IC50 [µM]
1,VRCRQNEPGGAYWCSS [SEQ ID NO 256],< 100
2,CVLREGAEGWECVWR [SEQ ID NO 257],< 100
3,LDLTYDELLACT [SEQ ID NO 2],< 100
4,FVHCTLLGCWSG [SEQ ID NO 24],< 100
5,CRMMQGTYGWTCLF (disulfide 1-12 (inferred)) [SEQ ID NO 258],< 100
6,CILNDTIQGWVCIY [SEQ ID NO 259],< 100
7,CTLYRSAPGVWLCIF [SEQ ID NO 260],< 100
8,CLVFDQYGNYKRRC [SEQ ID NO 261],< 100
9,IVCCNMFGCHTCRN [SEQ ID NO 262],< 100
10,QVCCTSRGCRVCAPV [SEQ ID NO 263],< 100
11,RVCCSMVGCRSCNL [SEQ ID NO 264],< 100
12,RVCCTFAGCRVCHK [SEQ ID NO 265],< 100
13,RVCCTSDGCRGCRQ [SEQ ID NO 266],< 100
14,TVCCTVQGCWPCSR [SEQ ID NO 267],< 100
15,WVICSALGCRSM [SEQ ID NO 30],< 100
16,WVICSALGCRSL [SEQ ID NO 29],< 100
17,WVICSAMGCRSI [SEQ ID NO 32],< 100
18,WVICSALGCRSI [SEQ ID NO 33],< 100
19,WVICSAFGCRSM [SEQ ID NO 34],< 100
20,VCCHQTFGCYRCKQ [SEQ ID NO 268],< 100
21,CVVCSALGCRACVPR [SEQ ID NO 269],< 100
22,VWDCFVRGWEAGVAAVGE [SEQ ID NO 270],< 100
23,LTCLIFKPGTHRHCPV [SEQ ID NO 271],< 100
